Targets include SCRIB_4, Q14160; MAGI1_3, Q96QZ7; NHERF2_1, Q15599; LIMK1, P53667; Inadl_7, Q8NI35.
Holding throughout (experiment): holdup assay
Holding throughout (set-up): key: below the threshold = too weak to quantify, mostly under pKd 3.1 to 4

A further experiment deals with T1, GIPC1, O14908.
T1 sequence (O14908 128-223, limits assumed, looked up): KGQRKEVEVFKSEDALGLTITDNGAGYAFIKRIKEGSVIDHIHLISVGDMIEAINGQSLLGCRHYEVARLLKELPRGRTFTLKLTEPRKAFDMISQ
Particulars: plain residues with an end cap or a label only (N-terminal biotin on a linker: (peg)3).

The next experiment addresses RIMS2, Q9UQ26. Particulars: plain residues with an end cap or a label only (N-terminal biotin on a linker: (peg)3).
In the next experiment the target is T2, SHROOM4, Q9ULL8.
T2 sequence (Q9ULL8 5-102, limits assumed, looked up): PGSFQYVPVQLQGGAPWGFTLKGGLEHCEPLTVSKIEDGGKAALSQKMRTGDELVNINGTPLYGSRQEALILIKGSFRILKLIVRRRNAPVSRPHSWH

The next experiment deals with CARD14, Q9BXL6. Particulars: plain residues with an end cap or a label only (N-terminal biotin on a linker: (peg)3).
The next experiment concerns the target T3, NHERF1_1, O14745.
T3 sequence (O14745 9-104, limits assumed, looked up): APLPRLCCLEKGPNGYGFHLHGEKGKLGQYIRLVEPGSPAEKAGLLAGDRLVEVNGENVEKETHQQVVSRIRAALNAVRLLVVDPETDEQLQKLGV

The target in a further experiment is T4, PDZD2_4, O15018.
T4 sequence (O15018 723-823, limits assumed, looked up): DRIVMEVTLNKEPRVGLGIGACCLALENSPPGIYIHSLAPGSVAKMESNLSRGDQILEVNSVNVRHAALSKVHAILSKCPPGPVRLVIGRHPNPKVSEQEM

Another experiment addresses T5, DVL1, O14640.
T5 sequence (O14640 246-333, limits assumed, looked up): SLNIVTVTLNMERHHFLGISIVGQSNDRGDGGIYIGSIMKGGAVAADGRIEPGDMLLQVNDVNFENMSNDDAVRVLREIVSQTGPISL
To be noted: plain residues with an end cap or a label only (N-terminal biotin on a linker: (peg)3).

For a further experiment, the target named is T6, SNTB2, Q13425.
T6 sequence (Q13425 110-208, limits assumed, looked up): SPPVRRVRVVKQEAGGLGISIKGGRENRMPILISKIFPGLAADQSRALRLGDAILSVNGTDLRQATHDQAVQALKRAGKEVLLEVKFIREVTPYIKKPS
Particulars: plain residues with an end cap or a label only (N-terminal biotin on a linker: (peg)3).

In the next experiment the target is T7, PARD6G, Q9BYG4.
T7 sequence (Q9BYG4 153-261, limits assumed, looked up): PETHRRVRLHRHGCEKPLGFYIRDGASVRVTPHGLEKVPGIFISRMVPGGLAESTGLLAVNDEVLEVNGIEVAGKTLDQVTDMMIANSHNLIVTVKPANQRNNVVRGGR
To be noted: plain residues with an end cap or a label only (N-terminal biotin on a linker: (peg)3).

Another experiment addresses T8, MPDZ_6, O75970.
T8 sequence (O75970 1003-1099, limits assumed, looked up): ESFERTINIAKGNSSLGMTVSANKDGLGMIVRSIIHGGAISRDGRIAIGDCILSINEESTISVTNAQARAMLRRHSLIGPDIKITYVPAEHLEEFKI

For another experiment, the target named is T9, NHERF3_2, Q5T2W1.
T9 sequence (Q5T2W1 129-225, limits assumed, looked up): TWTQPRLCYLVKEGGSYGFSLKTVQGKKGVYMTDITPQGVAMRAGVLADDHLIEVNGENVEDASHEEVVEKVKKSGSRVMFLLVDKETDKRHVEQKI

In the next experiment the target is T10, RGS12, O14924.
T10 sequence (O14924 17-108, limits assumed, looked up): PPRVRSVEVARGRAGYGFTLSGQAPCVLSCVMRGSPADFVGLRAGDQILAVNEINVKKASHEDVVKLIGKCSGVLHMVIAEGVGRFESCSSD
Particulars: plain residues with an end cap or a label only (N-terminal biotin on a linker: (peg)3).

The next experiment concerns the target T11, PTPN4, P29074.
T11 sequence (P29074 512-599, limits assumed, looked up): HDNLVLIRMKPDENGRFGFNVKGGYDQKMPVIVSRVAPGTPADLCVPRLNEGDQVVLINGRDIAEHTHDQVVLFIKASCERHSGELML

The target of another experiment is T12, SHANK2, Q9UPX8.
T12 sequence (Q9UPX8 621-730, limits assumed, looked up): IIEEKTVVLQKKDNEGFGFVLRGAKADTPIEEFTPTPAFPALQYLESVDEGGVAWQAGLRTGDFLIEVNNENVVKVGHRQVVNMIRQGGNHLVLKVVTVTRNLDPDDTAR

The target of a further experiment is T13, NHERF1_2, O14745.
T13 sequence (O14745 149-244, limits assumed, looked up): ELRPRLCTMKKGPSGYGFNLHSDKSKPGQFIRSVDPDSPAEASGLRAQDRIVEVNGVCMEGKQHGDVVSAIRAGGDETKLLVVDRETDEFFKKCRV

The target in the next experiment is T14, PARD6B, Q9BYG5.
T14 sequence (Q9BYG5 152-260, limits assumed, looked up): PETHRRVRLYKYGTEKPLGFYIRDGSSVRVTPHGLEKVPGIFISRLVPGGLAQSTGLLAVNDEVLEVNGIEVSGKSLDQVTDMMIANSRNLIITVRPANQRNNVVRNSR
To be noted: plain residues with an end cap or a label only (N-terminal biotin on a linker: (peg)3).

The target of the next experiment is T15, PDZD7_2, Q9H5P4.
T15 sequence (Q9H5P4 205-303, limits assumed, looked up): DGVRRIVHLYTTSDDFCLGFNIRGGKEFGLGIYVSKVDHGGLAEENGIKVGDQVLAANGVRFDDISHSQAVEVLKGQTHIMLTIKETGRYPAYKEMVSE
To be noted: plain residues with an end cap or a label only (N-terminal biotin on a linker: (peg)3).

Setting [1] is: plain residues with an end cap or a label only (N-terminal biotin on a linker: (peg)3).
The mark [2] stands for this setting: modified: phospho on T at position -2 from the C-terminal residue.

Sequence of CARD14, Q9BXL6 (Q9BXL6 558-663): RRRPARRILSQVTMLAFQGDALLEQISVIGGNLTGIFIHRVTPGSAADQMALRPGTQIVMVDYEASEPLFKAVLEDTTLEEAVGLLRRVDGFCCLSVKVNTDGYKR
Sequence of LIMK1, P53667 (P53667 155-268): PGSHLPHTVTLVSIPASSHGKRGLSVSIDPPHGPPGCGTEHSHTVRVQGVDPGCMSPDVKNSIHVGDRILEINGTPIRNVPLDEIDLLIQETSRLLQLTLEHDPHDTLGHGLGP
Sequence of SCRIB_4, Q14160 (Q14160 1095-1204): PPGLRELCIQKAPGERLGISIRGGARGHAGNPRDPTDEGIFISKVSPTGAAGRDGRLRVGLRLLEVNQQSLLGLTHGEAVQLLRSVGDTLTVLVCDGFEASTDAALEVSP
Sequence of NHERF2_1, Q15599 (Q15599 9-91): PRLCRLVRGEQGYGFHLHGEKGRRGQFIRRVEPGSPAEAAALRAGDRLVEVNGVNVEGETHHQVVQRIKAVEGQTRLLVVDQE
Sequence of Inadl_7, Q8NI35 (Q8NI35 1219-1332): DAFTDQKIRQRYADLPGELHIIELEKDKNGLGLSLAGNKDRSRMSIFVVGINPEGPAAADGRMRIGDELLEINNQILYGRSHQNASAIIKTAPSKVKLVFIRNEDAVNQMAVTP
Sequence of MAGI1_3, Q96QZ7 (Q96QZ7 638-725): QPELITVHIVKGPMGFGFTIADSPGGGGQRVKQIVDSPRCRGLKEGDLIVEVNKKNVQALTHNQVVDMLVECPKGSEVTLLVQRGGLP
Sequence of RIMS2, Q9UQ26 (Q9UQ26 637-758): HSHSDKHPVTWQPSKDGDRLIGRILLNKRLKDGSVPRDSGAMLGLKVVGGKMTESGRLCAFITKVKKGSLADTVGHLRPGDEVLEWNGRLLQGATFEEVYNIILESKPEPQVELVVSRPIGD

As usually defined, the pKd is the Kd on a negative log10 scale, so that one unit is a factor of ten. Regarding QQSMSSADSTQA [SARS-Cov2-N, P0DTC9], the pKd is 4.46 with GIPC1, O14908; “below the threshold” in the experiment with RIMS2, Q9UQ26; “below the threshold” with SHROOM4, Q9ULL8 (setting [1]); “below the threshold” with CARD14, Q9BXL6; “below the threshold” with SCRIB_4, Q14160 (setting [1]); “below the threshold” with MAGI1_3, Q96QZ7 (setting [1]). For the same molecule, the pKd entry with NHERF1_1, O14745 (setting [1]) is recorded as “below the threshold”; in the experiment with NHERF2_1, Q15599 (setting [1]), “below the threshold”; in the experiment with PDZD2_4, O15018 (setting [1]), “below the threshold”; in the experiment with DVL1, O14640, “below the threshold”; with LIMK1, P53667 (setting [1]), “below the threshold”; in the experiment with SNTB2, Q13425, “below the threshold”. The pKd result is listed as “below the threshold” in the experiment with Inadl_7, Q8NI35 (setting [1]); “below the threshold” with PARD6G, Q9BYG4; “below the threshold” with MPDZ_6, O75970 (setting [1]); “below the threshold” in the experiment with NHERF3_2, Q5T2W1 (setting [1]); “below the threshold” with RGS12, O14924; “below the threshold” with PTPN4, P29074 (setting [1]). For the same molecule, the pKd entry is “below the threshold” with SHANK2, Q9UPX8 (setting [1]); “below the threshold” with NHERF1_2, O14745 (setting [1]); “below the threshold” in the experiment with PARD6B, Q9BYG5; “below the threshold” in the experiment with PDZD7_2, Q9H5P4.

On to SSRTRRETQL [HPV16-E6_-2P, P03126], for which the pKd result in the experiment with SHROOM4, Q9ULL8 (setting [2]) is reported as “below the threshold”; with SCRIB_4, Q14160 (setting [2]), “below the threshold”; with MAGI1_3, Q96QZ7 (setting [2]), “below the threshold”; with NHERF1_1, O14745 (setting [2]), “below the threshold”; with NHERF2_1, Q15599 (setting [2]) it was “below the threshold”; with PDZD2_4, O15018 (setting [2]), “below the threshold”. The pKd result with LIMK1, P53667 (setting [2]) is on record as “below the threshold”; in the experiment with Inadl_7, Q8NI35 (setting [2]) it was “below the threshold”; in the experiment with MPDZ_6, O75970 (setting [2]), “below the threshold”; with NHERF3_2, Q5T2W1 (setting [2]) it was “below the threshold”; with PTPN4, P29074 (setting [2]), “below the threshold”; with SHANK2, Q9UPX8 (setting [2]), “below the threshold”. Further, the pKd result in the experiment with NHERF1_2, O14745 (setting [2]) is reported as “below the threshold”.

For the molecule RRRRSQSRESQC [HBV-HBc, P03193], the pKd was 5.58 with GIPC1, O14908; “below the threshold” with RIMS2, Q9UQ26; “below the threshold” with SHROOM4, Q9ULL8 (setting [1]); “below the threshold” with CARD14, Q9BXL6; “below the threshold” with SCRIB_4, Q14160 (setting [1]); “below the threshold” in the experiment with MAGI1_3, Q96QZ7 (setting [1]). Besides, the pKd entry with NHERF1_1, O14745 (setting [1]) was “below the threshold”; with NHERF2_1, Q15599 (setting [1]) it was “below the threshold”; in the experiment with PDZD2_4, O15018 (setting [1]), “below the threshold”; with DVL1, O14640, “below the threshold”; in the experiment with LIMK1, P53667 (setting [1]) it was “below the threshold”; in the experiment with SNTB2, Q13425, 4.58. Further, the pKd entry with Inadl_7, Q8NI35 (setting [1]) was “below the threshold”; with PARD6G, Q9BYG4, “below the threshold”; with MPDZ_6, O75970 (setting [1]), “below the threshold”; with NHERF3_2, Q5T2W1 (setting [1]), “below the threshold”; with RGS12, O14924, “below the threshold”; with PTPN4, P29074 (setting [1]), 4.94. In addition, the pKd entry in the experiment with SHANK2, Q9UPX8 (setting [1]) was “below the threshold”; with NHERF1_2, O14745 (setting [1]) it was 3.96; with PARD6B, Q9BYG5, “below the threshold”; in the experiment with PDZD7_2, Q9H5P4 it was “below the threshold”.

For RYEDTTLVEDTVL [WNV-NS5, Q9Q6P4], the pKd entry in the experiment with GIPC1, O14908 is listed as “below the threshold”; with RIMS2, Q9UQ26, “below the threshold”; in the experiment with SHROOM4, Q9ULL8 (setting [1]), “below the threshold”; with CARD14, Q9BXL6, “below the threshold”; in the experiment with SCRIB_4, Q14160 (setting [1]), “below the threshold”; with MAGI1_3, Q96QZ7 (setting [1]) it was “below the threshold”. Moreover, the pKd in the experiment with NHERF1_1, O14745 (setting [1]) was 5.14; with NHERF2_1, Q15599 (setting [1]), 4.19; with PDZD2_4, O15018 (setting [1]), “below the threshold”; with DVL1, O14640, “below the threshold”; with LIMK1, P53667 (setting [1]), “below the threshold”; with SNTB2, Q13425 it was “below the threshold”. The pKd result with Inadl_7, Q8NI35 (setting [1]) was “below the threshold”; with PARD6G, Q9BYG4, “below the threshold”; with MPDZ_6, O75970 (setting [1]), 3.94; with NHERF3_2, Q5T2W1 (setting [1]), “below the threshold”; with RGS12, O14924 it was “below the threshold”; in the experiment with PTPN4, P29074 (setting [1]), “below the threshold”. Also, the pKd was 4.59 in the experiment with SHANK2, Q9UPX8 (setting [1]); “below the threshold” with NHERF1_2, O14745 (setting [1]); “below the threshold” with PARD6B, Q9BYG5; “below the threshold” in the experiment with PDZD7_2, Q9H5P4.

(Values after article PMC9482650, “Quantitative fragmentomics allow affinity mapping of interactomes” (Nature Communications, 2022).)
